Patent publication US8290713 (LONZA BIOLOGICS, dated 2012)
Non-standard residues stand in square brackets, D forms with d.

B1: ZP-0194 (peptide)
peptide: Ac-[dH][dH][dT][dT][dV][dY]-NH2
SMILES: CC(=O)N[C@H](Cc1c[nH]cn1)C(=O)N[C@H](Cc1c[nH]cn1)C(=O)N[C@@H](C(=O)N[C@@H](C(=O)N[C@@H](C(=O)N[C@H](Cc1ccc(O)cc1)C(N)=O)C(C)C)[C@H](C)O)[C@H](C)O
B2: ZP-0180 (peptide)
peptide: Ac-[dH][dH][dT][dV][dV][dA]-NH2
SMILES: CC(=O)N[C@H](Cc1c[nH]cn1)C(=O)N[C@H](Cc1c[nH]cn1)C(=O)N[C@@H](C(=O)N[C@@H](C(=O)N[C@@H](C(=O)N[C@H](C)C(N)=O)C(C)C)C(C)C)[C@H](C)O
B3: ZP-0171 (peptide)
peptide: Ac-[dH][dH][dV][dI][dV][dY]-NH2
SMILES: CC[C@@H](C)[C@@H](NC(=O)[C@H](NC(=O)[C@@H](Cc1c[nH]cn1)NC(=O)[C@@H](Cc1c[nH]cn1)NC(C)=O)C(C)C)C(=O)N[C@@H](C(=O)N[C@H](Cc1ccc(O)cc1)C(N)=O)C(C)C
B4: ZP-0159 (peptide)
peptide: Ac-[dH][dH][dV][dV][dV][dA]-NH2
SMILES: CC(=O)N[C@H](Cc1c[nH]cn1)C(=O)N[C@H](Cc1c[nH]cn1)C(=O)N[C@@H](C(=O)N[C@@H](C(=O)N[C@@H](C(=O)N[C@H](C)C(N)=O)C(C)C)C(C)C)C(C)C
B5: ZP-0179 (peptide)
peptide: Ac-[dH][dH][dT][dI][dV][dK]-NH2
SMILES: CC[C@@H](C)[C@@H](NC(=O)[C@H](NC(=O)[C@@H](Cc1c[nH]cn1)NC(=O)[C@@H](Cc1c[nH]cn1)NC(C)=O)[C@H](C)O)C(=O)N[C@@H](C(=O)N[C@H](CCCCN)C(N)=O)C(C)C
B6: ZP-0181 (peptide)
peptide: Ac-[dH][dH][dT][dL][dV][dA]-NH2
SMILES: CC(=O)N[C@H](Cc1c[nH]cn1)C(=O)N[C@H](Cc1c[nH]cn1)C(=O)N[C@@H](C(=O)N[C@H](CC(C)C)C(=O)N[C@@H](C(=O)N[C@H](C)C(N)=O)C(C)C)[C@H](C)O
B7: ZP-0175 (peptide)
peptide: Ac-[dH][dH][dT][dI][dV][dV]-NH2
SMILES: CC[C@@H](C)[C@@H](NC(=O)[C@H](NC(=O)[C@@H](Cc1c[nH]cn1)NC(=O)[C@@H](Cc1c[nH]cn1)NC(C)=O)[C@H](C)O)C(=O)N[C@@H](C(=O)N[C@@H](C(N)=O)C(C)C)C(C)C
B8: ZP-0172 (peptide)
peptide: Ac-[dH][dH][dV][dI][dV][dW]-NH2
SMILES: CC[C@@H](C)[C@@H](NC(=O)[C@H](NC(=O)[C@@H](Cc1c[nH]cn1)NC(=O)[C@@H](Cc1c[nH]cn1)NC(C)=O)C(C)C)C(=O)N[C@@H](C(=O)N[C@H](Cc1c[nH]c2ccccc12)C(N)=O)C(C)C
B9: ZP-0170 (peptide)
peptide: Ac-[dH][dH][dV][dI][dV][dT]-NH2
SMILES: CC[C@@H](C)[C@@H](NC(=O)[C@H](NC(=O)[C@@H](Cc1c[nH]cn1)NC(=O)[C@@H](Cc1c[nH]cn1)NC(C)=O)C(C)C)C(=O)N[C@@H](C(=O)N[C@@H](C(N)=O)[C@H](C)O)C(C)C
B10: ZP-0169 (peptide)
peptide: Ac-[dH][dH][dV][dI][dV][dV]-NH2
SMILES: CC[C@@H](C)[C@@H](NC(=O)[C@H](NC(=O)[C@@H](Cc1c[nH]cn1)NC(=O)[C@@H](Cc1c[nH]cn1)NC(C)=O)C(C)C)C(=O)N[C@@H](C(=O)N[C@@H](C(N)=O)C(C)C)C(C)C
B11: ZP-0193 (peptide)
peptide: Ac-[dH][dH][dT][dE][dV][dY]-NH2
SMILES: CC(=O)N[C@H](Cc1c[nH]cn1)C(=O)N[C@H](Cc1c[nH]cn1)C(=O)N[C@@H](C(=O)N[C@H](CCC(=O)O)C(=O)N[C@@H](C(=O)N[C@H](Cc1ccc(O)cc1)C(N)=O)C(C)C)[C@H](C)O
B12: ZP-0162 (peptide)
peptide: Ac-[dH][dH][dV][dE][dV][dA]-NH2
SMILES: CC(=O)N[C@H](Cc1c[nH]cn1)C(=O)N[C@H](Cc1c[nH]cn1)C(=O)N[C@@H](C(=O)N[C@H](CCC(=O)O)C(=O)N[C@@H](C(=O)N[C@H](C)C(N)=O)C(C)C)C(C)C
B13: ZP-0168 (peptide)
peptide: Ac-[dH][dH][dV][dI][dV][dP]-NH2
SMILES: CC[C@@H](C)[C@@H](NC(=O)[C@H](NC(=O)[C@@H](Cc1c[nH]cn1)NC(=O)[C@@H](Cc1c[nH]cn1)NC(C)=O)C(C)C)C(=O)N[C@@H](C(=O)N1CCC[C@@H]1C(N)=O)C(C)C
B14: ZP-0158 (peptide)
peptide: Ac-[dH][dH][dV][dI][dV][dA]-NH2
SMILES: CC[C@@H](C)[C@@H](NC(=O)[C@H](NC(=O)[C@@H](Cc1c[nH]cn1)NC(=O)[C@@H](Cc1c[nH]cn1)NC(C)=O)C(C)C)C(=O)N[C@@H](C(=O)N[C@H](C)C(N)=O)C(C)C
B15: ZP-0186 (peptide)
peptide: Ac-[dH][dH][dT][dL][dV][dV]-NH2
SMILES: CC(=O)N[C@H](Cc1c[nH]cn1)C(=O)N[C@H](Cc1c[nH]cn1)C(=O)N[C@@H](C(=O)N[C@H](CC(C)C)C(=O)N[C@@H](C(=O)N[C@@H](C(N)=O)C(C)C)C(C)C)[C@H](C)O
B16: ZP-0161 (peptide)
peptide: Ac-[dH][dH][dV][dK][dV][dA]-NH2
SMILES: CC(=O)N[C@H](Cc1c[nH]cn1)C(=O)N[C@H](Cc1c[nH]cn1)C(=O)N[C@@H](C(=O)N[C@H](CCCCN)C(=O)N[C@@H](C(=O)N[C@H](C)C(N)=O)C(C)C)C(C)C

Target: α-synuclein (UniProt P37840 1-140)
Test: cell-based or functional assay
Note: test concentration or dose not given here.

Compared with B1, B2 is higher in “% decrease in ThT fluorescence” value: 11.6% for the first, 19.8% for the second.

Going from B3 to B4, the “% decrease in ThT fluorescence” value rises from 13.9% to 19.8%.

First: B5
Second: B6
The “% decrease in ThT fluorescence” value of the first is lower: 0.6% for the first, 22.8% for the second.

Compared with B7, B8 is lower in “% decrease in ThT fluorescence” value: 21.9% for the first, -1.7% for the second.

First: B9
Second: B10
The “% decrease in ThT fluorescence” value of the first is higher: 24.5% for the first, -0.5% for the second.

Compared with B11, B12 is lower in “% decrease in ThT fluorescence” value: 8.7% for the first, 6.3% for the second.

Compared with B13, B14 is higher in “% decrease in ThT fluorescence” value: -8.6% for the first, 15.1% for the second.

First: B15
Second: B16
The “% decrease in ThT fluorescence” value of the first is higher: 30.7% for the first, -5.9% for the second.

First: B1
Second: B2
The “% decrease in rate of aggregation” value of the first is lower: 7.7% for the first, 18.4% for the second.

First: B3
Second: B4
The “% decrease in rate of aggregation” value of the first is lower: 13.2% for the first, 18.6% for the second.

Going from B5 to B6, the “% decrease in rate of aggregation” value falls from -0.6% to -1.2%.

First: B7
Second: B8
The “% decrease in rate of aggregation” value of the first is higher: 16.8% for the first, 6.9% for the second.

Compared with B9, B10 is lower in “% decrease in rate of aggregation” value: 29.3% for the first, -13.3% for the second.

Compared with B11, B12 is higher in “% decrease in rate of aggregation” value: -15.8% for the first, 6.6% for the second.

Compared with B13, B14 is higher in “% decrease in rate of aggregation” value: -5.4% for the first, 18.4% for the second.

Compared with B15, B16 is lower in “% decrease in rate of aggregation” value: 29.7% for the first, 2.3% for the second.

Going from B1 to B2, the “% increase in Lag phase” value falls from 38.8% to 30.3%.

First: B3
Second: B4
The “% increase in Lag phase” value of the first is higher: 43.6% for the first, 36.6% for the second.

First: B5
Second: B6
The “% increase in Lag phase” value of the first is higher: 30.4% for the first, 29.4% for the second.

First: B7
Second: B8
The “% increase in Lag phase” value of the first is higher: 89.7% for the first, 28.1% for the second.

First: B9
Second: B10
The “% increase in Lag phase” value of the first is higher: 29.4% for the first, 26.1% for the second.

Compared with B11, B12 is higher in “% increase in Lag phase” value: 31.4% for the first, 33.4% for the second.

First: B13
Second: B14
The “% increase in Lag phase” value of the first is lower: 29.8% for the first, 32.5% for the second.

Going from B15 to B16, the “% increase in Lag phase” value rises from 16.1% to 19.7%.
